Test results reported in publication PMC7984725 (Biochemistry, 2018).

Biological target: human linker histone H1.0 (human, UniProt P07305 1-194)
Test: ITC

Chain of human linker histone H1.0 (P07305 whole entry): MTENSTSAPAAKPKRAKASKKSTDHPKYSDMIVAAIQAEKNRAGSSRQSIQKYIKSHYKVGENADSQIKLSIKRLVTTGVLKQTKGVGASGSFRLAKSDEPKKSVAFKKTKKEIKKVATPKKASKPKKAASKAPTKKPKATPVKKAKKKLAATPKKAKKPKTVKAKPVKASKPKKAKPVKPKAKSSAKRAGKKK

B1: prothymosin-α (ProTα) (natural protein, UniProt P06454 1-111, looked up)
chain: MSDAAVDTSSEITTKDLKEKKEVVEEAENGRDAPANGNAENEENGEQEADNEVDEEEEEGGEEEEEEEEGDGEEEDGDEDEEAESATGKRAAEDDEDDDVDTKKQKTDEDD
Kd: 460 nM
stoichiometry N: 1
